Source: paper PMC5823869

Target: YAP2L/TAZ in cells
Assay: non-reducing SDS-PAGE with immunoblot; cell lysates (15 µg of transfected HEK293; 30 µg of H460 for endogenous TAZ) in SDS sample buffer without DTT, 3 min at 60 °C; blot with anti-FLAG, anti-HA or anti-TAZ; series with increasing DTT run beside

Substance YAP2L/TAZ in cells has a percent of the total protein that is dimer of 20 to 30%.
